The source of these data is the supplement of paper PMC9170038.

The test system of series [1] is MS2 coat protein. In words: apparent KD of MS2 coat protein, switch ON state; designed switch direction (-1 OFF switch, 1 ON switch): -1; higher = weaker reporter binding. The settings on record: FMN input: 0 or 200 uM; Eterna round: R93 (includes R88 designs). The essentials: (§1)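 Illumina sequencing clusters were used for on-chip transcription of designed RNA switches. Titration with SNAP-549-labelled MS2 coat protein followed, in twofold steps from 0.7 or 1.5 nM to 3 µM in 100 mM Tris-HCl pH 7.5, 80 mM KCl, 4 mM MgCl2, without or with constant ligand. Apparent KD is each design's median of fits to normalised cluster binding curves.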

Series [2] relates to MS2 coat protein. In words: apparent KD of MS2 coat protein, switch OFF state (with FMN for OFF switches, without FMN for ON switches); designed switch direction (-1 OFF switch, 1 ON switch): -1; higher = weaker reporter binding. The settings on record: FMN input: 0 or 200 uM; Eterna round: R93 (includes R88 designs). The method, boiled down: as §1

In the case of “AAAACACAUGAGGAUCACCCAUGUGAGGAUAUGCUAUGGAAAUAAAAAAUAAAACAUAGCAGAAGGCACAAGGA [Mat - Exclusion 1 - Eli mod - D45]”, the “apparent KD of MS2 coat protein” value in the series with MS2 coat protein [1] was 31.1 nM; in the series on MS2 coat protein [2], 49.1 nM.
As to “GGGUCACAUGAGGAUCACCCAUGUAAGGAUAUGCUAGGGAUGGAAACCAUUACGCAACGCAGAAGGUACUAAAG [Janelle Amethyst 18 Mod 11 - Jieux - Exclusion 1]”, the figures for the “apparent KD of MS2 coat protein” value in the series with MS2 coat protein [1] and in the series with MS2 coat protein [2] were 40.3 nM and 59 nM, respectively.
The matching figures for “AAAUAGCAAGGAUAUACAUGAGGAUCACCCAUGUAAGGAUGAUACGUAAUAGAAGAAAGUAGAAGGUGCAAAUA [Ex 3 Tesla 6]”: 42.8 nM and 148 nM.
On the same counts, the results for “AGUUUGUCAGGAUAUGCGUGAAGAAUAAAACAAAUAACAACGCAGAAGGGACAUGAGGAUCACCCAUGUAAACA [May 54]” are 51.3 nM and 58.1 nM.
Turning to “AAAAAACAUGAGGAUCACCCAUGUAAGGAUAUCUAAAAUAAAAGAAAAAUAAAGAAAAGGAGAAGGUACAUGAA [JL wbt mod 21]”, the results for the “apparent KD of MS2 coat protein” value in the series on MS2 coat protein [1] and in the series on MS2 coat protein [2] were 28.6 nM and 50.6 nM, respectively.
On the same counts, the results for “AGAAAACAUGAGGAUCACCCAUGUGAGGAUAUGAAAAAGAAAAGAAAAGAAAGAAGAAUCAGAAGGCACAAGAA [Weneg]” are 28.6 nM and 29.8 nM.
For the sequence “AGUAUGCGAGGAUAUACAUGAGGAUCACCCAUGUGAGAGAUAAGUGUGAGAAAGACAAGUAGAAGGCGCGUACA [JL Lego Mod 27]”, the “apparent KD of MS2 coat protein” value stood at 106 nM in the series with MS2 coat protein [1] and 331 nM in the series with MS2 coat protein [2].
The matching figures for “AAAAAGCGAGGAUAUACAAAAGAGCGAAAGCUCAAAAGGAAACAUGAGGAUCACCCAUGUAGAAGGCGCAAGAA [John Whine]”: 23.1 nM and 20.1 nM.
On the same counts, the results for “AGUCAUACAGGAUAUACAUGAGGAUCACCCAUGUAUAUCCAAAAAAAAAAAAACUCAUGUAGAAGGGUAUGACA [EX3 206: Super Stable 6]” are 12 nM and 12.4 nM.
On the same counts, the results for “AAAAAGUGAGGAUAUGGUAAAAAAAAAAAAAAAAAGCACCUCCAGAAGGCACAUGAGGAUCACCCAUGUCGAAA [Jolly's Folly 6 - Jieux - Exclusion 4]” are 24.4 nM and 31.3 nM.
Regarding “CACGUACAUGAGGAUCACCCAUGUUAGGAUAUGCCGGGUAAGAGAAAACUAAAAAUCAGCAGAAGGGACGAAAC [Bilbo Confounded 16 - Jieux - Exclusion 1]”, the “apparent KD of MS2 coat protein” value came to 36.7 nM with MS2 coat protein [1] and 32.3 nM in the series on MS2 coat protein [2].
Take “AAAACGGUAGGAUAUACGAUUUGGAACUAAACCGAGGAACCACAUGAGGAUCACCCAUGUAGAAGGGCCAAAAA [Mat - Exclusion 2 - JL mod - D81]”: the “apparent KD of MS2 coat protein” value was determined as 18.4 nM in the series with MS2 coat protein [1] and 14.7 nM in the series on MS2 coat protein [2].
The matching figures for “AAAAAGGUAGGAUAUACAUGAGGAUCACCCAUGUAAAAAAAAACAAGAGAAAAAAAAUGUAGAAGGGCCAAAAA [Ex3 Malc#4]”: 14.3 nM and 16.9 nM.
On to “AAAAACUCAGGAUAUACAUGAGGAUCACCCAUGUAAAAAAAAAAAAAGGGAAAAAAAAGUAGAAGGGAGAAAAA [Semenre]”, for which the “apparent KD of MS2 coat protein” value in the series on MS2 coat protein [1] came to 25.5 nM; with MS2 coat protein [2], 37.2 nM.
On the same counts, the results for “GAAAAACAUGAGGAUCACCCAUGUCAGGAUAUCGAAAAAUAAAUAAAAAUAAAAUAAACGAGAAGGGACAAAAG [Mat - Same state - Mayanna Mod - D111]” are 50.2 nM and 61.1 nM.
In the case of “CGAAUGUAAGGAUAUAGCCACAUUACGAAUAAGUAGUGUGGCUAGAAGGUACAUGAGGAUCACCCAUGUAUGGG [Exclusion 4.5 (AU closing FMN)]”, the results for the “apparent KD of MS2 coat protein” value in the series with MS2 coat protein [1] and in the series with MS2 coat protein [2] were 181 nM and 51.7 nM, respectively.
On the same counts, the results for “AGAAAACGAGGAUAUGCAAGGGAAGAAAGAAGAGAGAAAAAACAUGAGGAUCACCCAUGUAGAAGGUGUAAAAA [JR_Exc002_Sub1714]” are 57.5 nM and 37.1 nM.
On to “UGCCGUCUAGGAUAUACAUGAGGAUCACCCAUGUGACACACAUAUUUUACAAAACCAUGUAGAAGGAGACGGCA [E3-2.0]”, for which the “apparent KD of MS2 coat protein” value worked out at 99.2 nM with MS2 coat protein [1] and 477 nM in the series on MS2 coat protein [2].
For the sequence “GGUUGUGGAGGAUAUACAUGAGGAUCACCCAUGUGAGAGAAAAAAGUGAGAAAGAAAAGUAGAAGGUCGUGACG [salish99-ex3-69]”, the “apparent KD of MS2 coat protein” value was 36.8 nM in the series with MS2 coat protein [1] and 34 nM in the series on MS2 coat protein [2].
For “AAACGUUGAGGAUAUACAAAAGGGUAUAAAUCAAAAAAAACACAUGAGGAUCACCCAUGUAGAAGGCAACGAAA”, the “apparent KD of MS2 coat protein” value in the series with MS2 coat protein [1] was determined as 128 nM; in the series with MS2 coat protein [2], 65.6 nM.
